# Laboratory results: patent publication US20160369268
# Tests used:
# Assay in all cases: cell_activity
# [1] = tested on: TALETRE#4-KRAB (synthetic (Xanthomonas TALE)); conditions: 50 ng, against TALETRE#4-VP16-induced AmCyan
# [2] = tested on: TALETRE#3-KRAB (synthetic (Xanthomonas TALE)); conditions: 50 ng, against TALETRE#4-VP16-induced AmCyan
# [3] = tested on: TALECMV-KRAB (synthetic (Xanthomonas TALE)); conditions: 100 ng, CMV-mKate-PEST in HEK293; only 19% on TRE/CMVmin AmCyan at 50 ng
sequence,measurement,setting,value
ATCAGTGATAGAGAAC (double strand) [TRE target of TALETRE#4],activity,[1],80 % repression
CCCTATCAGTGAT (double strand) [TRE target of TALETRE#3],activity,[2],84 % repression
CTATATAAGCAGAGCT (double strand) [CMV TATA box region target],activity,[3],93 % repression
